Experimental data: publication doi:10.1101/264085 (bioRxiv, 2018)
Changes are numbered by the printed parent chain. One block for each binder: values may come before it.

Tests used:
[1] = molecular target: the molecule itself; experiment: AUC
[2] = molecular target: T1, NDP52(10-126) F20Q (human, UniProt Q13137 10-126, F20Q); experiment: ITC
T1 sequence (looked up): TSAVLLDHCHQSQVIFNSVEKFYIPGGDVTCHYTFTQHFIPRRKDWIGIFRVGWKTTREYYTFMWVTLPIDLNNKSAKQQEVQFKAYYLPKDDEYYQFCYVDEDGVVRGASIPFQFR

[3] = molecular target: TAX1BP1(1-121) (human, UniProt Q86VP1 1-121); experiment: ITC
Sequence of TAX1BP1(1-121) (Q86VP1 1-121): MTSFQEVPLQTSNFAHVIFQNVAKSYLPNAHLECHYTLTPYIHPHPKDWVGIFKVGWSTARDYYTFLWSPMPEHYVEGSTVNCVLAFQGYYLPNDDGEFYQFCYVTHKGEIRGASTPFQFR

[4] = molecular target: T2, NDP52(1-126) (human, UniProt Q13137 1-126); experiment: ITC
T2 sequence (looked up): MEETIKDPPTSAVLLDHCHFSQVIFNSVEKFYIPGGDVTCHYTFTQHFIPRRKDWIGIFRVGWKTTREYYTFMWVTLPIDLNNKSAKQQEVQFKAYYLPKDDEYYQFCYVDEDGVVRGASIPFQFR

[5] = molecular target: T3, NDP52(1-126) T39E (human, UniProt Q13137 1-126, T39E); experiment: ITC
T3 sequence (looked up): T2 sequence (looked up) with T39E

[6] = molecular target: TAX1BP1(1-121) S25E (human, UniProt Q86VP1 1-121, S25E); experiment: ITC
Sequence of TAX1BP1(1-121) S25E (Q86VP1 1-121 S25E): as the sequence (Q86VP1 1-121) above, with S25E counted along it

[7] = molecular target: T4, NDP52(10-126) (human, UniProt Q13137 10-126); experiment: AUC
T4 sequence (looked up): T1 sequence (looked up) with Q11F

[8] = molecular target: T4, NDP52(10-126); experiment: crystal structure

- binding result [2]: binds
- Kd [3]: ~2050 nM
- Kd [4]: ~1150 nM
- binding result [5]: binds
- binding result [6]: binds
- stoichiometry N [7]: 2 NDP52(10-126) molecules per NAP1(33-75) dimer
- stoichiometry N [8]: 1 NDP52 chains per NAP1 chain (2:2)
Binder: ESVASHFALVTAYEDIKKRLKDSEKENSLLKKRIRFLEEKLIA (domain or fragment, human, UniProt Q9H6S1 33-75, looked up) [NAP1(33-75)]
- stoichiometry N [1]: 2

- Kd [4]: ~1490 nM
B1: NAP1(1-85) (domain or fragment, human, UniProt Q9H6S1 1-85, looked up)
chain: MDALVEDDICILNHEKAHKRDTVTPVSIYSGDESVASHFALVTAYEDIKKRLKDSEKENSLLKKRIRFLEEKLIARFEEETSSVG

- Kd [4]: ~1800 nM
B2: NAP1(1-75) (domain or fragment, human, UniProt Q9H6S1 1-75, looked up)
chain: MDALVEDDICILNHEKAHKRDTVTPVSIYSGDESVASHFALVTAYEDIKKRLKDSEKENSLLKKRIRFLEEKLIA
